B1: anti-CD30 antibody (5F11) variant E345W (antibody)
heavy: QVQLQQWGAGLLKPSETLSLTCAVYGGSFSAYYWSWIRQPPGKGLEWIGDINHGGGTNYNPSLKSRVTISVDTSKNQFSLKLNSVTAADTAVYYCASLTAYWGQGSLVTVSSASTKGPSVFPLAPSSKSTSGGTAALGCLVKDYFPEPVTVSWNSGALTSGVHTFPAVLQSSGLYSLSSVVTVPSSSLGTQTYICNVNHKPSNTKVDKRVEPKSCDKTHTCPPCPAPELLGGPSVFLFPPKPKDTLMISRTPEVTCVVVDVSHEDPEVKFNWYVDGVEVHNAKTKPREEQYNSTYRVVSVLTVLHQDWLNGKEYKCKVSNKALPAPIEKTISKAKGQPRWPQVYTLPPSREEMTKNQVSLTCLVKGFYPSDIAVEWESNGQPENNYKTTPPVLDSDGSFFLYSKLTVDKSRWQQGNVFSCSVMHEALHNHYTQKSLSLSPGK
light: DIQMTQSPTSLSASVGDRVTITCRASQGISSWLTWYQQKPEKAPKSLIYAASSLQSGVPSRFSGSGSGTDFTLTISSLQPEDFATYYCQQYDSYPITFGQGTRLEIKRTVAAPSVFIFPPSDEQLKSGTASVVCLLNNFYPREAKVQWKVDNALQSGNSQESVTEQDSKDSTYSLSSTLTLSKADYEKHKVYACEVTHQGLSSPVTKSFNRGEC
notes: Single Fc substitution in the 5F11 antibody; EU numbering, not the numbering of the UniProt entry
B2: anti-CD30 antibody (5F11) variant S254W (antibody)
heavy: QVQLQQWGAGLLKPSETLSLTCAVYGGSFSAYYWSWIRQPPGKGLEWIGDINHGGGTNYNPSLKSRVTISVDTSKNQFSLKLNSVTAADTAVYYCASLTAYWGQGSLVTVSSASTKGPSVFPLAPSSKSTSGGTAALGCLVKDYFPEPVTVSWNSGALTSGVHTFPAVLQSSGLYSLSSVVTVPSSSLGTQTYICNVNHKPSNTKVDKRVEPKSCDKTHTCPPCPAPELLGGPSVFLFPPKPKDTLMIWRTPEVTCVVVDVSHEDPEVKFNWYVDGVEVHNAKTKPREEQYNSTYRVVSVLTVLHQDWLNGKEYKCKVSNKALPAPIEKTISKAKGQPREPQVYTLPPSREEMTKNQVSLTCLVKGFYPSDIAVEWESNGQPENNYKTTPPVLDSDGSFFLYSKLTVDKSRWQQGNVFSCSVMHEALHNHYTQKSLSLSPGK
light: B1 light
notes: Single Fc substitution in the 5F11 antibody; EU numbering, not the numbering of the UniProt entry; copies: 2 + 2
B3: anti-CD30 antibody (5F11) variant S426W (antibody)
heavy: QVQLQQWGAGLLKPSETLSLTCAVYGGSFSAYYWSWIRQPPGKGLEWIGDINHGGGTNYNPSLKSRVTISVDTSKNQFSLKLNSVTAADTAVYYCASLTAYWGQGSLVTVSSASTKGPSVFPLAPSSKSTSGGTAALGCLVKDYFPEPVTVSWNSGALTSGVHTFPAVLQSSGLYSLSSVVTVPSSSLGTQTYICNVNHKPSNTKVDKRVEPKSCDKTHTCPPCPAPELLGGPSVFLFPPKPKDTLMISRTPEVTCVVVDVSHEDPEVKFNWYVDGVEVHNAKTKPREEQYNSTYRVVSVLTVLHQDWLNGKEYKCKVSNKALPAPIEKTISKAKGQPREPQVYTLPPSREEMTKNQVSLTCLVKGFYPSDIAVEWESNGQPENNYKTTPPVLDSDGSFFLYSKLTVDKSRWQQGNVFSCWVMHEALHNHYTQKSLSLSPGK
light: B1 light
notes: as for B2
B4: anti-CD30 antibody (5F11) variant E356K (antibody)
heavy: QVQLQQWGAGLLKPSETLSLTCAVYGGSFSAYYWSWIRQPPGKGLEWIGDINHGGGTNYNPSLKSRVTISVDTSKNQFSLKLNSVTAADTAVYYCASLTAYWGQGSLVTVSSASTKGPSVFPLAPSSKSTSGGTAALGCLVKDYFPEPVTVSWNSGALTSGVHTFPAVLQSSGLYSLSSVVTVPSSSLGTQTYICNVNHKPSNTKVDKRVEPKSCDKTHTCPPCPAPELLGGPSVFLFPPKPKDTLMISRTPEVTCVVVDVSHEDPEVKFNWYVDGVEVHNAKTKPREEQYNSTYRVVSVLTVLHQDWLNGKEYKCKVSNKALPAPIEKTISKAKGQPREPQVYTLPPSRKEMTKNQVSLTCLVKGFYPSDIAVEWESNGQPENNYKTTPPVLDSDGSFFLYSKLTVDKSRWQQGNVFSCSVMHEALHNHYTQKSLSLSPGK
light: B1 light
notes: Single Fc substitution in the 5F11 antibody; EU numbering; copies: 2 + 2
B5: anti-CD30 antibody (5F11) variant A378P (antibody)
heavy: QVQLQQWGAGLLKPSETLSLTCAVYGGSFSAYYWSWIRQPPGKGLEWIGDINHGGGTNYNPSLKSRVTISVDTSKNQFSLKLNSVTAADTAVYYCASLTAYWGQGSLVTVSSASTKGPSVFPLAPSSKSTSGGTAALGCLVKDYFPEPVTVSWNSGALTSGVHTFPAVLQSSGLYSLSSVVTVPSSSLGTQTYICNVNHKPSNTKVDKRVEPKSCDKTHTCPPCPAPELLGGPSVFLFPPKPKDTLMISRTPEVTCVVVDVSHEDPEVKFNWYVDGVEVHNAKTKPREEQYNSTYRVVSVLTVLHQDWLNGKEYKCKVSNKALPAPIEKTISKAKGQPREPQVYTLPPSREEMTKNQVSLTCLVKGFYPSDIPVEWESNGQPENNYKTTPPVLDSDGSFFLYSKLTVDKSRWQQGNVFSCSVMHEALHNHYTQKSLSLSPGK
light: B1 light
notes: as for B2
B6: anti-CD30 antibody (5F11) variant S354R (antibody)
heavy: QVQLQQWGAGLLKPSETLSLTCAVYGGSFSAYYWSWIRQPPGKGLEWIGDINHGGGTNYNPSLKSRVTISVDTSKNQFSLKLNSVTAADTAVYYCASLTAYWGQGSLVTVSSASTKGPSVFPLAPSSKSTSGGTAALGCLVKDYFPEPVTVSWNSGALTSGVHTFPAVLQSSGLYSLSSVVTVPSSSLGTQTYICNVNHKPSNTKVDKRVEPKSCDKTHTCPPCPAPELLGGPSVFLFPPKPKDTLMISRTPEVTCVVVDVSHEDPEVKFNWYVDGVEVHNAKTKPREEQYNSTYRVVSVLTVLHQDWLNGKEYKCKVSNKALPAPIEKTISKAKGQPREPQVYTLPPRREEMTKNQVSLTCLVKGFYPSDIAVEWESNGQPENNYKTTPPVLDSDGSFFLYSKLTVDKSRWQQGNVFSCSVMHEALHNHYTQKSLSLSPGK
light: B1 light
notes: as for B2
B7: anti-CD30 antibody (5F11) variant P396I (antibody)
heavy: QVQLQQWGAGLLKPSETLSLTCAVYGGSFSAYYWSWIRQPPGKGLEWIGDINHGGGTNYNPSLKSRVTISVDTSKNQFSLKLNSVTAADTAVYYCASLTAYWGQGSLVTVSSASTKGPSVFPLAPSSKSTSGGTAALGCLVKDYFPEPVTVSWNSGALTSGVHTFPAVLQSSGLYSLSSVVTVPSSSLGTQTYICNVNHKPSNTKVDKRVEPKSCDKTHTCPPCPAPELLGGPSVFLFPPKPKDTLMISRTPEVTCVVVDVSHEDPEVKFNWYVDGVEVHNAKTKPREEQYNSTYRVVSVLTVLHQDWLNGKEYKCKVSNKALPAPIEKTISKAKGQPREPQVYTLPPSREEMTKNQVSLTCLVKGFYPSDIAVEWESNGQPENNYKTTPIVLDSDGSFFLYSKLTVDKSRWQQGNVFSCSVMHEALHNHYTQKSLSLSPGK
light: B1 light
notes: as for B2
B8: anti-CD30 antibody (5F11) variant G446W (antibody)
heavy: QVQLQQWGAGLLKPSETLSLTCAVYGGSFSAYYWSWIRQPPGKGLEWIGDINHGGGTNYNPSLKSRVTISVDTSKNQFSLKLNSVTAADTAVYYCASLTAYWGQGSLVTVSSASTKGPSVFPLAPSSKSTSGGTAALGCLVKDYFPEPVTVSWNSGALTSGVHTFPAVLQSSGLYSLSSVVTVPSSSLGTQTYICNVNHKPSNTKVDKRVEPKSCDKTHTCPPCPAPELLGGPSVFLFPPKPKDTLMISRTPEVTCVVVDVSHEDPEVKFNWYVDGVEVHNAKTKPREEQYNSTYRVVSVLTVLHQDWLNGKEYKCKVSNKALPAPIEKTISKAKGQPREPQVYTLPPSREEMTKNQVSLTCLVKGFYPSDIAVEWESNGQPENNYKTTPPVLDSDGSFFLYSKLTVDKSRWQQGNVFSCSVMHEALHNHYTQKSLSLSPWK
light: B1 light
notes: as for B2
B9: anti-CD30 antibody (5F11) variant F404W (antibody)
heavy: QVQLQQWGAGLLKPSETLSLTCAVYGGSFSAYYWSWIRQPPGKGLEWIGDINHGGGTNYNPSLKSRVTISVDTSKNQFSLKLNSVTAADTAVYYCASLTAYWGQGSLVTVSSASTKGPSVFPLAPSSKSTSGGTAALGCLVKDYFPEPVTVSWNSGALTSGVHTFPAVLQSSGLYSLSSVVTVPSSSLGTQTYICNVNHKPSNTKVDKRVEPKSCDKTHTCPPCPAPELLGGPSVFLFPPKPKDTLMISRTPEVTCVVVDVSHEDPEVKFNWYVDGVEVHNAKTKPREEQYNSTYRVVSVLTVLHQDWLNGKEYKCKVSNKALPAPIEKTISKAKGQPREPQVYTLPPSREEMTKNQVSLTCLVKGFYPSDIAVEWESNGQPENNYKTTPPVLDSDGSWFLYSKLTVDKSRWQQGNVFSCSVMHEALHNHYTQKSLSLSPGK
light: B1 light
notes: as for B2
B10: anti-CD30 antibody (5F11) variant D376T (antibody)
heavy: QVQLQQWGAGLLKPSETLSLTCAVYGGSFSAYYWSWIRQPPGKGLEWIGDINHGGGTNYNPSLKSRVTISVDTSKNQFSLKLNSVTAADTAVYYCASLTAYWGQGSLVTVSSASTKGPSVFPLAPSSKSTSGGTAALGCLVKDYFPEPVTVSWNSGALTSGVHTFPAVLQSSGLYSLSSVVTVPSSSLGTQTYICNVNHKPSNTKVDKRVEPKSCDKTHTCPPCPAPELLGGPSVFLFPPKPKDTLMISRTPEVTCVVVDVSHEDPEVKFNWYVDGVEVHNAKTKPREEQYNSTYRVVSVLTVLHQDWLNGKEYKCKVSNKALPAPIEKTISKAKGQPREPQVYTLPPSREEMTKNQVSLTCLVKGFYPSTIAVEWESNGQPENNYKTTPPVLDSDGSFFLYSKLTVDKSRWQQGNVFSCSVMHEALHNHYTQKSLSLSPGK
light: B1 light
notes: as for B2
B11: anti-CD30 antibody (5F11) variant P247I (antibody)
heavy: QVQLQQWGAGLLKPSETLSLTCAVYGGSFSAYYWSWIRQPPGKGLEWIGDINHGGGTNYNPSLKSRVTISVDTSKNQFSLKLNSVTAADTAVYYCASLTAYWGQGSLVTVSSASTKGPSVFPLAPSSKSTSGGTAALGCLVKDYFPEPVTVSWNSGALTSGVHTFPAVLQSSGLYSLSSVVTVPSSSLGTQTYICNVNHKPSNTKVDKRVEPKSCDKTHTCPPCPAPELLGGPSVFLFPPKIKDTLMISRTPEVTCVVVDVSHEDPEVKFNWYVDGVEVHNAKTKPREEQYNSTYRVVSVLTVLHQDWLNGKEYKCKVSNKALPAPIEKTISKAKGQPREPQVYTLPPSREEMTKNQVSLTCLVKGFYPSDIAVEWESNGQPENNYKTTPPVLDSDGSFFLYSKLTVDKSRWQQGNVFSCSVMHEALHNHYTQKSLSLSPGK
light: B1 light
notes: as for B2

These binders were tested against T1, human FcRn (recombinant soluble receptor, 6XHis, co-expressed with beta2 microglobulin) (human, UniProt P61769 21-119) (assay: Luminex assay, pH 6).
T1 construct: purified on nickel; also called huFcRn

Row | FcRn binding at pH 6 (fold difference vs wild type anti-CD30) [fold vs wild type] | Binder
1 | 1.3 | B1
2 | 0.2 | B2
3 | 0.6 | B3
4 | 1.4 | B4
5 | 0.6 | B5
6 | 1.3 | B6
7 | 1.4 | B7
8 | 1.1 | B8
9 | 1.7 | B9
10 | 1.6 | B10
11 | 1.1 | B11

From patent publication US20100104564A1 (published 2010)
